Some results are limits rather than exact numbers.

Data set [1] has as its system PC-3 tumour. Put plainly: Biodistribution/pHe modulation study. Format: in vivo, mouse. The settings on record: PC-3, 24 h p.i., bicarbonate per os 5 days; P=0.053; 95% CI 0%, 51%.
A short description of data set [2]: Radiochemical purity of the preparation over time. Format: physicochemical. The settings on record: measured ≈24 h p.i., preparation used for SPECT imaging.
For data set [3] the following is noted: 60 min p.i., i.v., mean±SD of 2 independent studies.
Data set [4] can be described thus: Biodistribution of 99mTc-AH114567 in tumoured mice.
Data set [5] concerns LNCaP tumour. The data set can be described thus: Biodistribution/pHe modulation study. As to conditions: 24 h p.i., bicarbonate per os 5 days, P=0.020, 95% CI 10%, 42%. It is filed as in vivo, mouse.
The subject of data set [6] is mice. The data set can be described thus: Toxicity of pHe marker in mice. Format: in vivo, mouse. As to conditions: 7 mmol/kg i.p.

Regarding “ACEQNPIY{WARYADWLFTTPLLLLDLALLV}DADEGTG [99mTc-AH114567]”, the “tumour uptake ratio (uptake difference with bicarbonate relative to standard)” value in data set [1] and in data set [5] was 29% throughout. The “radiochemical purity (RCP) of the preparation” value in data set [2] was ≥ 85%. Also, the “integrated radio-HPLC signal of the parent compound in rat plasma” value in data set [3] amounted to 86±6%. In addition, the “lung/blood uptake ratio at 4 h p.i.” value in data set [4] (4 h p.i.) is on record as “≈ 2”. Besides, in data set [4] (24 h p.i.), the “lung/blood uptake ratio at 24 h p.i.” value is listed as “ca. 1”. Besides, the “kidney uptake at 24 h p.i.” value in data set [4] (24 h p.i., C57BL/6 mice) is given as ~3 % ID. In addition, the “blood uptake at 24 h p.i.” value in data set [4] (24 h p.i., all three models) is 1 to 2 % ID/g. For the same compound, the “lung/blood uptake ratio, initial” value in data set [4] (initially) is recorded as “≈ 3”. The compound also returned an uptake in liver in data set [4] (over the first 24 h p.i., liver+gall bladder, LLC tumoured C57BL/6 mice) of 25 to 15 % ID. Besides, the skin uptake in data set [4] (range over time points) is given as 3 to 8 % ID. In data set [4] (typically), this compound yielded an uptake in bone of 2 to 3 % ID.
As to `CCOP(=O)(OCC)C1(C)CCCN1` (stereo not shown), in data set [6], the toxicity for mice result was “toxic”.

(Values after paper PMC3909815 (Molecular imaging and biology : MIB : the official …, 2012).)
